Results on two substances are retold here after publication PMC2818508.

In test [1] the target is Rac2 (prenylated Rac-GTP) (UniProt P15153). The test is described as follows: liposome co-sedimentation, WAVE2 quantified. The conditions noted are these: reference: WAVE2 complex, not PP2A treated.
A further test addresses prenylated Rac2-GTP (UniProt P15153). The test is described as follows: co-sedimentation.

Regarding “WAVE2 (from UniProt Q9Y6W5) PP2A treated WAVE2 complex”, the “other: % of total WAVE2 bound” value in test [1] is “same; reference 56”.
“WAVE2 complex, PP2A treated (from UniProt Q9Y6W5 1-498; Q96F07 1-1278; Q9Y2A7 1-1128; Q8IZP0 1-508; Q8WUW1 1-75)”: in the test with prenylated Rac2-GTP, the % bound (of total WAVE2) stood at 55% and the % bound (of total WAVE2; PIP3 liposomes + Rac-GTP) worked out at 79%.
